PMC4066765, “Insights into how Spt5 functions in transcription elongation and repressing transcription coupled DNA repair” (Nucleic Acids Research, 2014)

Molecular target: T1, Rpb1, largest subunit of RNA polymerase II (S. cerevisiae, UniProt P04050 1-1733)
T1 construct: Rpb1, largest subunit of RNA polymerase II, S. cerevisiae; detected and immunoprecipitated with antibody 8WG16; Stands in the cell as part of the 12-subunit RNAP II; in the co-IP it is the bait (8WG16); also called RNAP II; core RNAP II (immunoprecipitated through Rpb1); source: endogenous, S. cerevisiae (BJ5465 derivatives); in living cells (cross-linking) and in solubilised chromatin fraction …
Assay: co-IP; chromatin fraction of log phase yeast cells solubilised by sonication in 50 mM HEPES pH 7.5, 140 mM NaCl, 1% Triton X-100, 0.1% sodium deoxycholate, 1 mM EDTA, 0.1% SDS; immunoprecipitated with 4 μg anti-Rpb1 8WG16; blots with 8WG16, 2Y14 and anti-Myc; cells expressing full-length, KOW4-deleted or KOW4-5-deleted Spt5
Details: partners not purified

T1 sequence (P04050 whole entry): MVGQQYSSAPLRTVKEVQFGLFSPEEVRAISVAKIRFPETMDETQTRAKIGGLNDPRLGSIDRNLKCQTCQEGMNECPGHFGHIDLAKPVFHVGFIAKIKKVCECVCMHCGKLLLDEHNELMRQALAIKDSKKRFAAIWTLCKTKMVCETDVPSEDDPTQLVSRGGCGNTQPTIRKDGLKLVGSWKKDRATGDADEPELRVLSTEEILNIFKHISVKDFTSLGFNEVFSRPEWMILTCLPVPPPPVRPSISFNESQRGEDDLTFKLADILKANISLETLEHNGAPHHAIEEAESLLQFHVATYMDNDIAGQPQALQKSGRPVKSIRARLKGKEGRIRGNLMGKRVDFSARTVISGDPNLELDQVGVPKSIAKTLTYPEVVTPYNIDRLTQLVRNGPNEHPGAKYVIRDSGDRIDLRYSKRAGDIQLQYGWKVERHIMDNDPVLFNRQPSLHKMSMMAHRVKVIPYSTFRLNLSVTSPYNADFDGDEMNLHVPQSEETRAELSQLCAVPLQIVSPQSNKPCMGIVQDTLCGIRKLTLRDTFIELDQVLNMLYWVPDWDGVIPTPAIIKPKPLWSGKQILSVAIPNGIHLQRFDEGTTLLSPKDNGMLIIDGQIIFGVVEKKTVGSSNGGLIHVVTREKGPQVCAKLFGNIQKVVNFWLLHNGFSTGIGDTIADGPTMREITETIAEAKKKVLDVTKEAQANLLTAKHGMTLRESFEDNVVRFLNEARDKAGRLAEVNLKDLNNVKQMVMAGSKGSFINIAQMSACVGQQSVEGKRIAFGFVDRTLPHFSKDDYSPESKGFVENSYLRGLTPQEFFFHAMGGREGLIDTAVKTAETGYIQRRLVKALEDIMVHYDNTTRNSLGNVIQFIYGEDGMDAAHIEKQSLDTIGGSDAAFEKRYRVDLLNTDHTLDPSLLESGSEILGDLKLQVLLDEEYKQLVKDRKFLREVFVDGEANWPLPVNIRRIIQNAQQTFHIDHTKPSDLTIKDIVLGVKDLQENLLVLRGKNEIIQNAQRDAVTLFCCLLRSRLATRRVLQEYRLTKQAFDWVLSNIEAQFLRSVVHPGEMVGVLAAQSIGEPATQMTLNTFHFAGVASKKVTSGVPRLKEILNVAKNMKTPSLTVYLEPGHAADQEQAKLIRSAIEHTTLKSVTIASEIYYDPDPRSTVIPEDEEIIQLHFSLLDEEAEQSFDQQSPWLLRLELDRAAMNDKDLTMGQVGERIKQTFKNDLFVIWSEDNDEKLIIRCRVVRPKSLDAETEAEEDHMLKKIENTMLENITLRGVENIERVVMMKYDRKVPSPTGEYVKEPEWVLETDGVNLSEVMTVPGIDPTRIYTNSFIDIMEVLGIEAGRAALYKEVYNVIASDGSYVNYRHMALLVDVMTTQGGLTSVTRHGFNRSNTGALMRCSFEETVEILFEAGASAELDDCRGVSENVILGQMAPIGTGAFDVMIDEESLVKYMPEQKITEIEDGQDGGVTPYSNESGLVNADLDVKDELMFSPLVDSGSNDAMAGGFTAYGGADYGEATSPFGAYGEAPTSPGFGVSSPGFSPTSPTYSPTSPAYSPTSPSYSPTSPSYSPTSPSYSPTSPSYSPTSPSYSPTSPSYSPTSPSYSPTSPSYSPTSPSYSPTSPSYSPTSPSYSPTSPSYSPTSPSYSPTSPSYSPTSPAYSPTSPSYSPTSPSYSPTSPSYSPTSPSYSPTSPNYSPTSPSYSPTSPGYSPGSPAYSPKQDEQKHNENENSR

B1: Rpb4 (endogenous) (natural protein, S. cerevisiae, UniProt P20433 1-221, looked up)
chain: MNVSTSTFQTRRRRLKKVEEEENAATLQLGQEFQLKQINHQGEEEELIALNLSEARLVIKEALVERRRAFKRSQKKHKKKHLKHENANDETTAVEDEDDDLDEDDVNADDDDFMHSETREKELESIDVLLEQTTGGNNKDLKNTMQYLTNFSRFRDQETVGAVIQLLKSTGLHPFEVAQLGSLACDTADEAKTLIPSLNNKISDDELERILKELSNLETLY
notes: Rpb4, subunit of RNA polymerase II, S. cerevisiae; detected with antibody 2Y14; source: endogenous, S. cerevisiae (BJ5465 derivatives), in solubilised chromatin fraction
  fold reduction of co-immunoprecipitated Rpb4 in cells with KOW4-5-deleted Spt5 against cells with full-length Spt5: > 2 fold
